A word on the stoichiometry N: it is a count of units in the complex or per binding partner.

The source of these data is PMC3084762, “Distinct Properties of Hexameric but Functionally Conserved Mycobacterium tuberculosis Transcription-Repair Coupling Factor” (PLoS ONE, 2011).

In one data set the target is T1, NTD of MtbMfd (Mycobacterium tuberculosis, UniProt P9WMQ5).
T1 construct: gene mfd

The data set “SEC” deals with the molecule itself. Description: SEC. Background: SEC sorts molecules by how far they enter the pores of the column.
The data set “dynamic light scattering” concerns the molecule itself. The experiment in a line: dynamic light scattering.

`Nc1ncnc2c1ncn2[C@@H]1O[C@H](COP(=O)(O)OP(=O)(O)OP(=O)(O)O)[C@@H](O)[C@H]1O` [ATP] showed a Ksv at NTD of MtbMfd of 526 µM.

B1: Mycobacterium tuberculosis Mfd (transcription-repair coupling factor), full length, His-tagged (natural protein)
chain: MTAPGPACSDTPIAGLVELALSAPTFQQLMQRAGGRPDELTLIAPASARLLVASALARQGPLLVVTATGREADDLAAELRGVFGDAVALLPSWETLPHERLSPGVDTVGTRLMALRRLAHPDDAQLGPPLGVVVTSVRSLLQPMTPQLGMMEPLTLTVGDESPFDGVVARLVELAYTRVDMVGRRGEFAVRGGILDIFAPTAEHPVRVEFWGDEITEMRMFSVADQRSIPEIDIHTLVAFACRELLLSEDVRARAAQLAARHPAAESTVTGSASDMLAKLAEGIAVDGMEAVLPVLWSDGHALLTDQLPDGTPVLVCDPEKVRTRAADLIRTGREFLEASWSVAALGTAENQAPVDVEQLGGSGFVELDQVRAAAARTGHPWWTLSQLSDESAIELDVRAAPSARGHQRDIDEIFAMLRAHIATGGYAALVAPGTGTAHRVVERLSESDTPAGMLDPGQAPKPGVVGVLQGPLRDGVIIPGANLVVITETDLTGSRVSAAEGKRLAAKRRNIVDPLALTAGDLVVHDQHGIGRFVEMVERTVGGARREYLVLEYASAKRGGGAKNTDKLYVPMDSLDQLSRYVGGQAPALSRLGGSDWANTKTKARRAVREIAGELVSLYAKRQASPGHAFSPDTPWQAELEDAFGFTETVDQLTAIEEVKADMEKPIPMDRVICGDVGYGKTEIAVRAAFKAVQDGKQVAVLVPTTLLADQHLQTFGERMSGFPVTIKGLSRFTDAAESRAVIDGLADGSVDIVIGTHRLLQTGVRWKDLGLVVVDEEQRFGVEHKEHIKSLRTHVDVLTMSATPIPRTLEMSLAGIREMSTILTPPEERYPVLTYVGPHDDKQIAAALRRELLRDGQAFYVHNRVSSIDAAAARVRELVPEARVVVAHGQMPEDLLETTVQRFWNREHDILVCTTIVETGLDISNANTLIVERADTFGLSQLHQLRGRVGRSRERGYAYFLYPPQVPLTETAYDRLATIAQNNELGAGMAVALKDLEIRGAGNVLGIEQSGHVAGVGFDLYVRLVGEALETYRDAYRAAADGQTVRTAEEPKDVRIDLPVDAHLPPDYIASDRLRLEGYRRLAAASSDREVAAVVDELTDRYGALPEPARRLAAVARLRLLCRGSGITDVTAASAATVRLSPLTLPDSAQVRLKRMYPGAHYRATTATVQVPIPRAGGLGAPRIRDVELVQMVADLITALAGKPRQHIGITNPSPPGEDGRGRNTTIKERQP
notes: also called MtbMfd; His-tagged MtbMfd; not shown: His tag, N-terminal, kept
On to B1, for which the “stoichiometry N” value in “SEC” is 6; in “dynamic light scattering”, about 6.

B2: purified untagged or native MtbMfd (natural protein)
chain: B1 chain
notes: also called untagged MtbMfd
As for B2, in “SEC”, the “stoichiometry N” value was 6.

B3: MtbMfd, endogenous in M. tuberculosis H37Ra cell lysate (natural protein)
chain: B1 chain
Regarding B3, the “stoichiometry N” value in the data set “SEC” came to 6.
